For data set [1], the target named is GST-BACH2_331-839 (UniProt P97303 331-839). The experiment in a line: EMSA; MafK presence not stated in the material; 32P-labeled ds probes, 30 min incubation, 4% polyacrylamide gel; buffer, salt, pH and temperature not stated. To be noted: protein: recombinant; tags: N-terminal GST; label: 32P 5' end (PNK). A general note: Mobility shift assays separate free from complexed probe on a gel.

Data set [2] addresses T1, His-FLAG-TBK1 (mouse, UniProt Q9WUN2 1-729).
T1 construct: An HRV 3C protease site follows the N-terminal FLAG-8xHis tag; also called FLAG-His-TBK1; recombinant mouse His-FLAG-TBK1; source: Sf9 insect cells (baculovirus), purified (FLAG-M2 agarose, G-25 spin column); not shown: FLAG, N-terminal, kept; 8xHis, N-terminal, kept
T1 sequence (looked up): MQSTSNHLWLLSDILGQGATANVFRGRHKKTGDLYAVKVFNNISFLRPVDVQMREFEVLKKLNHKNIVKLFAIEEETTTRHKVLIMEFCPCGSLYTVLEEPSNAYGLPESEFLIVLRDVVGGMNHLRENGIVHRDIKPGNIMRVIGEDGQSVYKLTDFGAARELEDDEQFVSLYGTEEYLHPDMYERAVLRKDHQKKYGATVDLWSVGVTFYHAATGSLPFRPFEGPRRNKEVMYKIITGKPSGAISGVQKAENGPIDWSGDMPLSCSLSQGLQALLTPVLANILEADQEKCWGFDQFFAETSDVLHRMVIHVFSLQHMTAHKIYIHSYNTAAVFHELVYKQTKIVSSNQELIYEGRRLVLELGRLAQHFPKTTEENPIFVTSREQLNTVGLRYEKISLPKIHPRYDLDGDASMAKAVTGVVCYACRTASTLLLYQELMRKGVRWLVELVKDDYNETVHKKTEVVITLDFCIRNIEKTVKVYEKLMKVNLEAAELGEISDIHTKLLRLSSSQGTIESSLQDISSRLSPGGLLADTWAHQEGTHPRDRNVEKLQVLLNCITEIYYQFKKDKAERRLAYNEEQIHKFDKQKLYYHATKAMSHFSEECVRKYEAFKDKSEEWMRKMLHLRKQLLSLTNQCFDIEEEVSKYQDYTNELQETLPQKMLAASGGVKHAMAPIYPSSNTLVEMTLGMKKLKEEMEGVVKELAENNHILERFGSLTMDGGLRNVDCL
In words: pull-down; GST fusion on Glutathione Sepharose beads with purified His-FLAG-TBK1 or His-FLAG-DNMT1, with or without heme, 2 h at 4°C; 20 mM HEPES pH 7.0, 50 mM NaCl, 2 mM TCEP; immunoblot. To be noted: both partners purified. For orientation: Immunoblotting shows a protein as a band on a membrane.

B1: Slc48a1-MARE (dsDNA)
DNA 1: GCACTCCACTTCTGACTCAGCATTTTGCAGCC
DNA 2: GGCTGCAAAATGCTGAGTCAGAAGTGGAGTGC
In the case of B1, the binding result in data set [1] is reported as “binds”.

B2: GST-BACH2-IDR (domain or fragment, mouse, UniProt P97303 331-520, looked up)
chain: SRSVSSPSCLRSLFGITKGVESTGLPSTSQQPLVRSSACPFNKGISQGDLKTDYTPLAGNYGQPHVGQKDVSNFAMGSPLRGPGPETLCKQEGELDRRSVIFSASACDQPNTPVHSYSAVSNLDKDLSEPVPKSLWVGAGQSLPSSQAYSHSGLMADHLPGRIRPNTSCPVPIKVCPRSPPLETRTRTSS
notes: BACH2, mouse, intrinsically disordered region, amino acid region 331-520; Plasmid pGEX6P1-BACH2-IDR; also called recombinant BACH2-331-520 with GST kept; source: E. coli KRX, purified (Glutathione Sepharose 4B)
B2: in data set [2], the binding result is “binds”.

B3: GST-BACH2-381-481 (domain or fragment, mouse, UniProt P97303 381-481, looked up)
chain: KTDYTPLAGNYGQPHVGQKDVSNFAMGSPLRGPGPETLCKQEGELDRRSVIFSASACDQPNTPVHSYSAVSNLDKDLSEPVPKSLWVGAGQSLPSSQAYSH
notes: made by PCR from pGEX6P1-BACH2-IDR; Cloned into pGEX-6P-1; source: E. coli KRX, purified (Glutathione Sepharose 4B)
Consider B3, for which the binding result in data set [2] is “binds”.

For the origin of these results see PMC11699347, “Heme regulates protein interactions and phosphorylation of BACH2 intrinsically disordered region in humoral response” (iScience, 2024).
